This is an account of results in the Human Domainome abundance scans (Beltran et al. 2025).

± gives the uncertainty stated by the source.

B1: Probable E3 ubiquitin-protein ligase MID2, residues 191 to 235; numbered along this chain, Q9UJV3 (parent)
chain: RGITCLDHENEKVNMYCVSDDQLICALCKLVGRHRDHQVASLNDR

Variants of B1 are the subject of the data set. Briefly: abundance fitness (aPCA) (normalised: wild type 0, dead -1); higher = more abundant; growth selection in yeast, the domain comes from the species named. Particulars: Homo sapiens.
RGITCLDHENEKVNMYCVSDDQLICALCKLVGRHRRHQVASLNDR: the abundance fitness is -0.255 ± 0.061.
The figure for RGITCLDHENEKVNMYCVSDDQLICALCKLVGRHRAHQVASLNDR is -0.293 ± 0.085; for RGITCLDHENEKVNMYCVSDDQLICALCKLVGRHRWHQVASLNDR it is -0.311 ± 0.079; for RGITCLDHENEKVNMYCVSDDQLICALCKLVGRHRGHQVASLNDR it is -0.098 ± 0.054.
With RGITCLDHENEKVNMYCVSDDQLICALCKLVGRHRVHQVASLNDR the figure was -0.3 ± 0.07; with RGITCLDHENEKVNMYCVSDDQLICALCKLVGRHRCHQVASLNDR, -0.278 ± 0.067; with RGITCLDHENEKVNMYCVSDDQLICALCKLVGRHRIHQVASLNDR, -0.34 ± 0.4.
The figure for RGITCLDHENEKVNMYCVSDDQLICALCKLVGRHRLHQVASLNDR is -0.125 ± 0.06.
Consider RGITCLDHENEKVNMYCVSDDQLICALCKLVGRHRPHQVASLNDR, for which the abundance fitness was -0.311 ± 0.074.
With RGITCLDHENEKVNMYCVSDDQLICALCKLVGRHREHQVASLNDR the figure was 0.036 ± 0.066; with RGITCLDHENEKVNMYCVSDDQLICALCKLVGRHRQHQVASLNDR, -0.235 ± 0.088; with RGITCLDHENEKVNMYCVSDDQLICALCKLVGRHRHHQVASLNDR, -0.146 ± 0.28.
In the case of RGITCLDHENEKVNMYCVSDDQLICALCKLVGRHRTHQVASLNDR, the abundance fitness is -0.176 ± 0.13.
The figure for RGITCLDHENEKVNMYCVSDDQLICALCKLVGRHRDHQCASLNDR is -0.014 ± 0.1; for RGITCLDHENEKVNMYCVSDDQLICALCKLVGRHRDHQPASLNDR it is -0.249 ± 0.13.
With RGITCLDHENEKVNMYCVSDDQLICALCKLVGRHRDHQIASLNDR, the abundance fitness is -0.153 ± 0.095.
With RGITCLDHENEKVNMYCVSDDQLICALCKLVGRHRDHQGASLNDR the figure was -0.191 ± 0.054; with RGITCLDHENEKVNMYCVSDDQLICALCKLVGRHRDHQEASLNDR, -0.143 ± 0.068.
The figure for RGITCLDHENEKVNMYCVSDDQLICALCKLVGRHRDHQHASLNDR is 0.067 ± 0.15; for RGITCLDHENEKVNMYCVSDDQLICALCKLVGRHRDHQYASLNDR it is -0.335 ± 0.2.
With RGITCLDHENEKVNMYCVSDDQLICALCKLVGRHRDHQWASLNDR, the abundance fitness is -0.23 ± 0.076.
With RGITCLDHENEKVNMYCVSDDQLICALCKLVGRHRDHQRASLNDR the figure was -0.319 ± 0.055; with RGITCLDHENEKVNMYCVSDDQLICALCKLVGRHRDHQLASLNDR, -0.079 ± 0.062; with RGITCLDHENEKVNMYCVSDDQLICALCKLVGRHRDHQMASLNDR, -0.129 ± 0.095.
With RGITCLDHENEKVNMYCVSDDQLICALCKLVGRHRDHQQASLNDR the figure was -0.081 ± 0.086; with RGITCLDHENEKVNMYCVSDDQLICALCKLVGRHRDHQDASLNDR, -0.258 ± 0.071; with RGITCLDHENEKVNMYCVSDDQLICALCKLVGRHRDHQTASLNDR, 0.06 ± 0.063.
With RGITCLDHENEKVNMYCVSDDQLICALCKLVGRHRDHQKASLNDR, the abundance fitness is -0.449 ± 0.17.
The figure for RGITCLDHENEKVNMYCVSDDQLICALCKLVGRHRDHQSASLNDR is 0.082 ± 0.11; for RGITCLDHENEKVNMYCVSDDQLICALCKLVGRHRDQQVASLNDR it is -0.365 ± 0.093.
Turning to RGITCLDHENEKVNMYCVSDDQLICALCKLVGRHRDAQVASLNDR, the abundance fitness was -0.313 ± 0.065.
Consider RGITCLDHENEKVNMYCVSDDQLICALCKLVGRHRDIQVASLNDR, for which the abundance fitness is -1.04 ± 0.31.
With RGITCLDHENEKVNMYCVSDDQLICALCKLVGRHRDKQVASLNDR the figure was 0.271 ± 0.068.
The figure for RGITCLDHENEKVNMYCVSDDQLICALCKLVGRHRDGQVASLNDR is -0.283 ± 0.056; for RGITCLDHENEKVNMYCVSDDQLICALCKLVGRHRDDQVASLNDR it is -0.274 ± 0.09.
With RGITCLDHENEKVNMYCVSDDQLICALCKLVGRHRDTQVASLNDR the figure was -0.295 ± 0.065; with RGITCLDHENEKVNMYCVSDDQLICALCKLVGRHRDSQVASLNDR, -0.482 ± 0.091; with RGITCLDHENEKVNMYCVSDDQLICALCKLVGRHRDMQVASLNDR, -0.684 ± 0.1.
In the case of RGITCLDHENEKVNMYCVSDDQLICALCKLVGRHRDLQVASLNDR, the abundance fitness is -0.584 ± 0.11.
The figure for RGITCLDHENEKVNMYCVSDDQLICALCKLVGRHRDRQVASLNDR is -0.492 ± 0.061.
With RGITCLDHENEKVNMYCVSDDQLICALCKLVGRHRDYQVASLNDR, the abundance fitness was -0.519 ± 0.12.
For RGITCLDHENEKVNMYCVSDDQLICALCKLVGRHRDHQVAILNDR, the abundance fitness is -0.481 ± 0.16.
For the variant RGITCLDHENEKVNMYCVSDDQLICALCKLVGRHRDHQVAALNDR, the abundance fitness was -0.08 ± 0.063.
In the case of RGITCLDHENEKVNMYCVSDDQLICALCKLVGRHRDHQVACLNDR, the abundance fitness is -0.071 ± 0.085.
The figure for RGITCLDHENEKVNMYCVSDDQLICALCKLVGRHRDHQVADLNDR is 0.087 ± 0.074; for RGITCLDHENEKVNMYCVSDDQLICALCKLVGRHRDHQVAVLNDR it is -0.298 ± 0.061; for RGITCLDHENEKVNMYCVSDDQLICALCKLVGRHRDHQVAWLNDR it is -0.458 ± 0.1.
As to RGITCLDHENEKVNMYCVSDDQLICALCKLVGRHRDHQVALLNDR, the abundance fitness was -0.157 ± 0.068.
Take RGITCLDHENEKVNMYCVSDDQLICALCKLVGRHRDHQVAGLNDR: the abundance fitness was -0.021 ± 0.055.
With RGITCLDHENEKVNMYCVSDDQLICALCKLVGRHRDHQVANLNDR the figure was 0.1 ± 0.35; with RGITCLDHENEKVNMYCVSDDQLICALCKLVGRHRDHQVARLNDR, -0.039 ± 0.053; with RGITCLDHENEKVNMYCVSDDQLICALCKLVGRHRDHQVAPLNDR, 0.061 ± 0.087.
With RGITCLDHENEKVNMYCVSDDQLICALCKLVGRHRDHQVAFLNDR the figure was -0.385 ± 0.14; with RGITCLDHENEKVNMYCVSDDQLICALCKLVGRHRDHQVATLNDR, -0.001 ± 0.062; with RGITCLDHENEKVNMYCVSDDQLICALCKLVGRHRDHQVAYLNDR, -0.502 ± 0.45.
Consider RGITCLDHENEKVNMYCVSDDQLICALCKLVGRHRDHQVAHLNDR, for which the abundance fitness was -0.135 ± 0.14.
The figure for RGITCLDHENEKVNMYCVSDDQLICALCKLVGRHRDHQVAKLNDR is -0.102 ± 0.074.
